Assay results from patent US20230136301A1, “Corticosteriod Reduction in Treatment with Anti-CD38 Antibody” (Janssen Biotech, Inc., priority 2021, published 2023).
Where “and” joins values, the source holds several entries; their conditions need not be identical. Equal entries are not always repeated.

Tests used:
patients with RRMM [1] = assay: PAVO Part 3: treatment-emergent adverse events with DARA SC and corticosteroid tapering
Protocol: The PAVO (MMY1004) trial is an open-label, nonrandomized, multicenter, phase lb study consisting of 3 parts. […] Safety was assessed, with an emphasis on IRRs, while corticosteroids were reduced and discontinued.
The purpose of Part 3 was to evaluate the safety of daratumumab 1,800 mg SC delivery without predose and postdose corticosteroids after a 3-week, 2-week, and 1-week tapering schedule to assess the safety of corticosteroid-free SC daratumumab administration. A total of 42 participants were treated. […] In conjunction, patients also received a 3-week, 2-week, or 1-week steroid tapering schedule (FIG. 2). The 3-week tapering schedule (corticosteroid-free by Cycle 1 Day 22) consisted of methylprednisolone (MP) given orally (PO)/IV pre-dose (Cycle 1 Day 1, 100 mg; Cycle 1 Day 8, 60 mg; Cycle 1 Day 15, 30 mg) and PO post-dose (Cycle 1 Day 1, 20 mg for 2 days; Cycle 1 Day 8, 20 mg for 1 day; Cycle 1 Day 15, 20 mg for 1 day). The 2-week tapering schedule (corticosteroid-free by Cycle 1 Day 15) consisted of MP given PO/IV pre-dose (Cycle 1 Day 1, 100 mg; Cycle 1 Day 8, 60 mg) and PO post-dose (Cycle 1 Day 1, 20 mg for 2 days; Cycle 1 Day 8, 20 mg for 1 day). The 1-week tapering schedule (corticosteroid-free by Cycle 1 Day 8) consisted of dexamethasone 20 mg administered IV pre-dose on Cycle 1 Day 1, without post-dose administration.
The 3-week, 2-week and 1-week steroid tapering schedules were assessed by “3+3” design, followed by cohort expansion to approximately 15 patients (3-week and 2-week tapering cohorts) or 12 patients (1-week tapering cohort). The dose-limiting toxicity (DLT) assessment period in the 3-week, 2-week and 1-week tapering cohorts were Cycle 1 Day 1 through Cycle 2 Day 4, Cycle 1 Day 1 through Cycle 1 Day 25, and Cycle 1 Day 1 through Cycle 1 Day 11, respectively. […] Grade 3 or 4 IRRs only qualified as DLTs if they occurred during corticosteroid reduction or discontinuation (not during Cycle 1 Day 1). For the 3-week and 2-week groups, IRRs reported at Cycle 1 Day 1 were not considered DLTs, as corticosteroids had not yet been reduced or discontinued. Up to approximately 12 patients could be enrolled in the 1-week tapering schedule to assess safety, including IRRs.
Safety assessments included treatment-emergent adverse events (TEAEs), serious adverse events, and IRRs. All toxicities were graded according to the National Cancer Institute's Common Terminology for the Classification of Adverse Events (NCI-CTCAE) Version 4.03 (National Cancer Institute. Common Terminology Criteria for Adverse Events (CTCAE): Version 4.03.).
The safety and efficacy populations, defined as all patients who received ≥1 dose of study drug, was the primary population for analysis. […] The pharmacokinetic-evaluable population was defined as all patients who received ≥1 dose of study drug and provided ≥1 post-infusion pharmacokinetic sample. The immunogenicity population was defined as all patients who received ≥1 dose of study drug and provided ≥1 post-infusion immunogenicity sample.

patients with RRMM [2] = assay: PAVO Part 2: DARA SC safety and efficacy

Substance: DARA SC: 1,800 mg daratumumab co-formulated with 30,000 U rHuPH20 (2,000 U/mL, 15 mL), manual subcutaneous injection
- Nausea, participants (patients with RRMM [1]; 3-week taper): 53%
- Nervous system disorders (patients with RRMM [1]; 3-week taper): 46.7%
- Patients who died due to complications from DLBCL (patients with RRMM [1]; 3-week taper): One
- TEAEs with an outcome of death (patients with RRMM [1]; 3-week taper): No deaths
- Anemia, any grade TEAE (patients with RRMM [1]; 3-week taper n=15): 1 (6.7) n (%) and 1 (6.7%) n (%)
- Anemia, grade ≥3 TEAE (patients with RRMM [1]; 3-week taper n=15): 1 (6.7) n (%) and 1 (6.7%) n (%)
- Any TEAE (patients with RRMM [1]; 3-week taper n=15): 15 (100)^ n (%) and 15 (100.0%) n (%)
- Any grade ≥3 TEAE (patients with RRMM [1]; 3-week taper n=15): 9 (60.0) n (%) and 9 (60.0%) n (%)
- Arthralgia, any grade TEAE (patients with RRMM [1]; 3-week taper n=15): 3 (20.0) n (%) and 3 (20.0%) n (%)
- Asthenia, any grade TEAE (patients with RRMM [1]; 3-week taper n=15): 1 (6.7) n (%) and 1 (6.7%) n (%)
- Back pain, TEAE (patients with RRMM [1]; 3-week taper n=15): 1 (6.7%) n (%)
- Blood and lymphatic system disorders (SOC), TEAE (patients with RRMM [1]; 3-week taper n=15): 4 (26.7%) n (%)
- Blood and lymphatic system disorders (SOC), grade 3 or higher TEAE (patients with RRMM [1]; 3-week taper n=15): 3 (20.0%) n (%)
- Bone pain, TEAE (patients with RRMM [1]; 3-week taper n=15): 2 (13.3%) n (%)
- Bone pain, grade ≥3 TEAE (patients with RRMM [1]; 3-week taper n=15): 1 (6.7) n (%) and 1 (6.7%) n (%)
- Chills, TEAE (patients with RRMM [1]; 3-week taper n=15): 2 (13.3%) n (%)
- Constipation, TEAE (patients with RRMM [1]; 3-week taper n=15): 2 (13.3%) n (%)
- Cough, any grade TEAE (patients with RRMM [1]; 3-week taper n=15): 3 (20.0) n (%) and 3 (20.0%) n (%)
- Decreased appetite, TEAE (patients with RRMM [1]; 3-week taper n=15): 3 (20.0%) n (%)
- Diarrhea, any grade TEAE (patients with RRMM [1]; 3-week taper n=15): 4 (26.7) n (%) and 4 (26.7%) n (%)
- Dizziness, any grade TEAE (patients with RRMM [1]; 3-week taper n=15): 4 (26.7) n (%) and 4 (26.7%) n (%)
- Erythema, any grade TEAE (patients with RRMM [1]; 3-week taper n=15): 2 (13.3) n (%) and 2 (13.3%) n (%)
- Fatigue, any grade TEAE (patients with RRMM [1]; 3-week taper n=15): 4 (26.7) n (%) and 4 (26.7%) n (%)
- Gastrointestinal disorders (SOC), TEAE (patients with RRMM [1]; 3-week taper n=15): 9 (60.0%) n (%)
- General disorders and administration site conditions (SOC), TEAE (patients with RRMM [1]; 3-week taper n=15): 11 (73.3%) n (%)
- Headache, any grade TEAE (patients with RRMM [1]; 3-week taper n=15): 5 (33.3) n (%) and 5 (33.3%) n (%)
- Lymphopenia, grade ≥3 TEAE (patients with RRMM [1]; 3-week taper n=15): 2 (13.3%) n (%) and 2 (13.3) n (%)
- Metabolism and nutrition disorders (SOC), TEAE (patients with RRMM [1]; 3-week taper n=15): 7 (46.7%) n (%)
- Muscle spasms, any grade TEAE (patients with RRMM [1]; 3-week taper n=15): 1 (6.7) n (%)
- Musculoskeletal and connective tissue disorders (SOC), TEAE (patients with RRMM [1]; 3-week taper n=15): 6 (40.0%) n (%)
- Musculoskeletal and connective tissue disorders (SOC), grade 3 or higher TEAE (patients with RRMM [1]; 3-week taper n=15): 2 (13.3%) n (%)
- Nasopharyngitis, any grade TEAE (patients with RRMM [1]; 3-week taper n=15): 5 (33.3) n (%) and 5 (33.3%) n (%)
- Nausea, any grade TEAE (patients with RRMM [1]; 3-week taper n=15): 8 (53.5%) n (%) and 8 (53.3%) n (%) and 8 (53.3) n (%)
- Nervous system disorders (SOC), TEAE (patients with RRMM [1]; 3-week taper n=15): 7 (46.7%) n (%)
- Neutropenia, grade ≥3 TEAE (patients with RRMM [1]; 3-week taper n=15): 0 n (%)
- Oropharyngeal pain, TEAE (patients with RRMM [1]; 3-week taper n=15): 2 (13.3%) n (%)
- Pain in extremity, any grade TEAE (patients with RRMM [1]; 3-week taper n=15): 4 (26.7) n (%) and 4 (26.7%) n (%)
- Patients with a serious TEAE (patients with RRMM [1]; 3-week taper n=15): 6 (40.0%) n (%)
- Peripheral edema, any grade TEAE (patients with RRMM [1]; 3-week taper n=15): 1 (6.7) n (%) and 1 (6.7%) n (%)
- Pyrexia, any grade TEAE (patients with RRMM [1]; 3-week taper n=15): 4 (26.7) n (%) and 4 (26.7%) n (%)
- Respiratory, thoracic and mediastinal disorders (SOC), TEAE (patients with RRMM [1]; 3-week taper n=15): 6 (40.0%) n (%)
- Skin and subcutaneous tissue disorders (SOC), TEAE (patients with RRMM [1]; 3-week taper n=15): 6 (40.0%) n (%)
- Vomiting, TEAE (patients with RRMM [1]; 3-week taper n=15): 2 (13.3%) n (%)
- Anemia, TEAE of Grade >3 (patients with RRMM [1]; PAVO Part 3): 9.5%
- Serious TEAEs in SOC General disorders and administration site conditions (patients with RRMM [1]; PAVO Part 3): 4.8%
- TEAEs in SOC General disorders and administration site conditions (patients with RRMM [1]; PAVO Part 3): 71.4%
- Anemia, any grade TEAE (patients with RRMM [1]; Total n=42): 7 (16.7) n (%) and 7 (16.7%) n (%)
- Anemia, grade ≥3 TEAE (patients with RRMM [1]; Total n=42): 4 (9.5) n (%) and 4 (9.5%) n (%)
- Any grade ≥3 TEAE (patients with RRMM [1]; Total n=42): 21 (50.0%) n (%) and 21 (50.0) n (%)
- Arthralgia, any grade TEAE (patients with RRMM [1]; Total n=42): 10 (23.8) n (%) and 10 (23.8%) n (%)
- Asthenia, any grade TEAE (patients with RRMM [1]; Total n=42): 7 (16.7) n (%) and 7 (16.7%) n (%)
- Back pain, TEAE (patients with RRMM [1]; Total n=42): 6 (14.3%) n (%)
- Blood and lymphatic system disorders (SOC), TEAE (patients with RRMM [1]; Total n=42): 11 (26.2%) n (%)
- Blood and lymphatic system disorders (SOC), grade 3 or higher TEAE (patients with RRMM [1]; Total n=42): 8 (19.0%) n (%)
- Bone pain, TEAE (patients with RRMM [1]; Total n=42): 7 (16.7%) n (%)
- Bone pain, grade ≥3 TEAE (patients with RRMM [1]; Total n=42): 3 (7.1) n (%) and 3 (7.1%) n (%)
- Chills, TEAE (patients with RRMM [1]; Total n=42): 5 (11.9%) n (%)
- Constipation, TEAE (patients with RRMM [1]; Total n=42): 7 (16.7%) n (%)
- Cough, any grade TEAE (patients with RRMM [1]; Total n=42): 7 (16.7) n (%) and 7 (16.7%) n (%)
- Decreased appetite, TEAE (patients with RRMM [1]; Total n=42): 5 (11.9%) n (%)
- Diarrhea, any grade TEAE (patients with RRMM [1]; Total n=42): 11 (26.2) n (%) and 11 (26.2%) n (%)
- Dizziness, any grade TEAE (patients with RRMM [1]; Total n=42): 5 (11.9) n (%) and 5 (11.9%) n (%)
- Erythema, any grade TEAE (patients with RRMM [1]; Total n=42): 6 (14.3) n (%) and 6 (14.3%) n (%)
- Fatigue, any grade TEAE (patients with RRMM [1]; Total n=42): 9 (21.4) n (%) and 9 (21.4%) n (%)
- Gastrointestinal disorders (SOC), TEAE (patients with RRMM [1]; Total n=42): 24 (57.1%) n (%)
- General disorders and administration site conditions (SOC), TEAE (patients with RRMM [1]; Total n=42): 30 (71.4%) n (%)
- Headache, any grade TEAE (patients with RRMM [1]; Total n=42): 7 (16.7) n (%) and 7 (16.7%) n (%)
- Lymphopenia, grade ≥3 TEAE (patients with RRMM [1]; Total n=42): 3 (7.1) n (%) and 3 (7.1%) n (%)
- Metabolism and nutrition disorders (SOC), TEAE (patients with RRMM [1]; Total n=42): 12 (28.6%) n (%)
- Muscle spasms, any grade TEAE (patients with RRMM [1]; Total n=42): 4 (9.5) n (%)
- Musculoskeletal and connective tissue disorders (SOC), TEAE (patients with RRMM [1]; Total n=42): 23 (54.8%) n (%)
- Musculoskeletal and connective tissue disorders (SOC), grade 3 or higher TEAE (patients with RRMM [1]; Total n=42): 4 (9.5%) n (%)
- Nasopharyngitis, any grade TEAE (patients with RRMM [1]; Total n=42): 11 (26.2) n (%) and 11 (26.2%) n (%)
- Nausea, any grade TEAE (patients with RRMM [1]; Total n=42): 13 (31.0) n (%) and 13 (31.0%) n (%)
- Nervous system disorders (SOC), TEAE (patients with RRMM [1]; Total n=42): 13 (31.0%) n (%)
- Neutropenia, grade ≥3 TEAE (patients with RRMM [1]; Total n=42): 3 (7.1) n (%) and 3 (7.1%) n (%)
- Oropharyngeal pain, TEAE (patients with RRMM [1]; Total n=42): 5 (11.9%) n (%)
- Pain in extremity, any grade TEAE (patients with RRMM [1]; Total n=42): 8 (19.0) n (%) and 8 (19.0%) n (%)
- Patients who died during the study (patients with RRMM [1]; Total n=42): 6 patients
- Patients with a grade 3/4 TEAE (patients with RRMM [1]; Total n=42): 18 (42.9%) n (%)
- Patients with a serious TEAE (patients with RRMM [1]; Total n=42): 16 (38.1%) n (%)
- Peripheral edema, any grade TEAE (patients with RRMM [1]; Total n=42): 5 (11.9) n (%) and 5 (11.9%) n (%)
- Pyrexia, any grade TEAE (patients with RRMM [1]; Total n=42): 9 (21.4) n (%) and 9 (21.4%) n (%)
- Respiratory, thoracic and mediastinal disorders (SOC), TEAE (patients with RRMM [1]; Total n=42): 15 (35.7%) n (%)
- Skin and subcutaneous tissue disorders (SOC), TEAE (patients with RRMM [1]; Total n=42): 11 (26.2%) n (%)
- Vomiting, TEAE (patients with RRMM [1]; Total n=42): 6 (14.3%) n (%)
- Patients who died due to progressive disease (patients with RRMM [1]; all cohorts, 1 in each cohort): 3 patients
- Lymphopenia, TEAE of Grade >3 (patients with RRMM [2]): 20.0%
- Serious TEAEs in SOC General disorders and administration site conditions (patients with RRMM [2]): 8.0%
- TEAEs in SOC General disorders and administration site conditions (patients with RRMM [2]): 72.0%
